Test results reported in doi:10.1101/2021.12.30.474520.
Read-outs that look alike come from different tables or passages of the source.

Legend:
[1] = molecular target: human SETD3 (residues 1-497) (human) (UniProt Q86TU7); test: ITC
[2] = molecular target: human SETD3 (residues 1-497) (human) (UniProt Q86TU7); test: ITC; remark: listed apart in the source

Kd [1] | Kd [2] | Substance
44.4 µM | 48.5 µM | β-actin peptide, residues 66-81, with 3-pyridylalanine at position 73 (βA-3PyrAla73) (from UniProt P60709 66-81)
3.1 µM | 4.9 µM | β-actin peptide, residues 66-81, with 4-pyridylalanine at position 73 (βA-4PyrAla73) (from UniProt P60709 66-81)
7.2 µM | 39.2 µM | β-actin peptide, residues 66-81, with ornithine at position 73 (βA-Orn73) (from UniProt P60709 66-81)
0.8 µM | 4 µM | β-actin peptide, residues 66-81, with β-triazolylalanine at position 73 (βA-βTriaA73) (from UniProt P60709 66-81)
